The values that follow come from patent US20020161202A1, “Apo-2DcR” (Genentech, Inc., priority 1997, published 2002).

The subject of one assay is Apo-2L. The experiment in a line: Binding of radioiodinated Apo-2L to Apo-2DcR-transfected 293 cells. The following applies: 125I-Apo-2L; 293 cells transfected with full-length Apo-2DcR vs pRK5; FIG. 4. How it is done:
To test whether Apo-2DcR binds to Apo-2L, and to assess whether Apo-2DcR is GPI-linked, binding of radioiodinated Apo-2L to Apo-2DcR-transfected 293 cells was analyzed. The effect of pre-treatment of the cells with phosphatidylinositol-specific phospholipase C (PI-PLC) on the binding was also analyzed.
Human 293 cells (ATCC CRL 1573) were plated in 100 mm plates (1×10^6 cells/plate) and transfected with 20 μg/plate pRK5 or pRK5 encoding the full-length Apo-2DcR (described in Example 1, ATCC deposit 209087) using calcium phosphate precipitation. After 24 hours, the cells were harvested in PBS/10 mM EDTA, washed in phosphate buffered saline (PBS), resuspended in 2 ml PBS per original plate and divided into two 1 ml aliquots per transfection. PI-PLC [Treanor et al., Nature, 382:80-83 (1996)] (1 μg/ml) was added to one of the two aliquots derived from each transfection, and the cells were incubated 1 hour at 37° C. The cells were washed and respuspended in 1 ml PBS containing 1% BSA (Sigma), and 0.04 ml aliquots were placed into tubes in triplicate. […] After a 1 hour incubation at room temperature, the cells were washed in ice cold PBS, pelleted, and counted for radioactivity.

A further assay deals with Human 293 cells. The experiment in a line: Apo-2L apoptosis induction in Apo-2DcR-transfected 293 cells (morphology of GFP-positive cells). In kind it is cell-based. The following applies: 293 cells transfected with pRK5-hApo-2DcR; Apo-2L 0.5 μg/ml; examined over 6 hours; FIG. 5. As for the experimental part: Human 293 cells, which express both DR4 and Apo-2 mRNA (data not shown), were plated in 100 mm plates (1×10^6 cells/plate) and transfected with 3 μg per plate pRK encoding green fluorescent protein (GFP; purchased from Clontech) together with 20 μg/plate pRK5 or pRK5-hApo-2DcR (see Example 2) using calcium phosphate precipitation. After 18 hours, the cells were treated with PBS or with Apo-2L (Pitti et al., supra, 0.5 μg/ml) and examined over 6 hours under a fluorescence microscope equipped with Hoffman optics (which enables clear viewing of non-fixed cells on plastic). GFP-positive cells were identified by green fluorescence and scored for apoptosis by morphologic criteria such as membrane blebbing and cytoplasmic condensation.

For assay [1], the system named is NF-κB. The assay is described as follows: Activation of NF-κB by Apo-2L in Apo-2DcR-transfected 293 cells (electrophoretic mobility shift assay). The settings on record: 293 cells transfected with pRK5-hApo-2DcR, 18 hours; Apo-2L 0.5 μg/ml; FIG. 6. In kind it is cell-based, human. How it is done: In a similar experiment, the 293 cells were transfected by pRK5 or pRK5-hApo-2DcR (20 μg/plate) and analyzed 18 hours later for activation of NF-κB by Apo-2L (0.5 μg/ml), as in Example 10 below.
HeLa cells were transfected with pRK5 expression plasmids encoding full-length native sequence Apo-2, DR4 or Apo-3 and harvested 24 hours after transfection. Nuclear extracts were prepared and 1 μg of nuclear protein was reacted with a ^32P-labelled NF-κB-specific synthetic oligonucleotide probe […] (SEQ ID NO: 12) [see, also, MacKay et al., J. Immunol., 153:5274-5284 (1994)], alone or together with a 50-fold excess of unlabelled probe, or with an irrelevant ^32P-labelled synthetic oligonucleotide […] (SEQ ID NO: 13). In some samples, antibody to p65/RelA subunits of NF-κB (1 μg/ml; Santa Cruz Biotechnology) was added. DNA binding was analyzed by an electrophoretic mobility shift assay as described by Hsu et al., supra; Marsters et al., supra, and MacKay et al., supra.
A general note: A gel shift assay detects complexes by their altered migration in electrophoresis.

Assay [2] deals with NF-κB. The assay is described as follows: NF-κB activation in HeLa cells transfected with receptor plasmids (electrophoretic mobility shift assay). The class given is cell-based, human. The following applies: harvested 24 hours after transfection, FIG. 12A. As for the experimental part:
HeLa cells were transfected with pRK5 expression plasmids encoding full-length native sequence Apo-2, DR4 or Apo-3 and harvested 24 hours after transfection. […] Immunol., 153:5274-5284 (1994)], alone or together with a 50-fold excess of unlabelled probe, or with an irrelevant ^32P-labelled synthetic oligonucleotide […] NO: 13). In some samples, antibody to p65/RelA subunits of NF-κB (1 μg/ml; Santa Cruz Biotechnology) was added. DNA binding was analyzed by an electrophoretic mobility shift assay as described by Hsu et al., supra; Marsters et al., supra, and MacKay et al., supra.

Sequence of Apo-2L (P50591 114-281 limits assumed): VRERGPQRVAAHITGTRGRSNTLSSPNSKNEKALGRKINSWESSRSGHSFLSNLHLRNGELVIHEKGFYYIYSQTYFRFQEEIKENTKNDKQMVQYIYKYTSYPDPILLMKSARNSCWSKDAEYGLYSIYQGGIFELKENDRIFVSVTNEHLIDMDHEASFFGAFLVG
Sequence of Apo-2L (O14798 26-236 partner limits assumed): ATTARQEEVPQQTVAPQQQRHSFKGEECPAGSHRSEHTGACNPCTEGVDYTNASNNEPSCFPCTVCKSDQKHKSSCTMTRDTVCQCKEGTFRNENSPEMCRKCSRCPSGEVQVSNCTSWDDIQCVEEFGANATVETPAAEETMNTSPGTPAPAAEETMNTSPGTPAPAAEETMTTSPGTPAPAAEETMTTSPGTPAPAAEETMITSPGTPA

B1: Apo-2DcR: full-length native sequence human Apo-2DcR polypeptide, 259 amino acids, GPI-anchored TNFR family member; expressed by transfection (protein)
chain: ATTARQEEVPQQTVAPQQQRHSFKGEECPAGSHRSEHTGACNPCTEGVDYTNASNNEPSCFPCTVCKSDQKHKSSCTMTRDTVCQCKEGTFRNENSPEMCRKCSRCPSGEVQVSNCTSWDDIQCVEEFGANATVETPAAEETMNTSPGTPAPAAEETMNTSPGTPAPAAEETMTTSPGTPAPAAEETMTTSPGTPAPAAEETMTTSPGTPA
B1: the “amount of specific Apo-2L binding” value with Apo-2L was “marked increase”. The “responsiveness to Apo-2L as measured by apoptosis induction” value in the assay with Human 293 cells is “markedly reduced”. Also, the “Apo-2L function as measured by NF-κB activation” value in the assay with NF-κB [1] is “inhibits Apo-2L function”.

B2: Apo-3/DR3: full length native sequence human TNFR family polypeptide with cytoplasmic death domain; expressed by transfection (protein, UniProt Q93038 1-417, looked up)
chain: MEQRPRGCAAVAAALLLVLLGARAQGGTRSPRCDCAGDFHKKIGLFCCRGCPAGHYLKAPCTEPCGNSTCLVCPQDTFLAWENHHNSECARCQACDEQASQVALENCSAVADTRCGCKPGWFVECQVSQCVSSSPFYCQPCLDCGALHRHTRLLCSRRDTDCGTCLPGFYEHGDGCVSCPTSTLGSCPERCAAVCGWRQMFWVQVLLAGLVVPLLLGATLTYTYRHCWPHKPLVTADEAGMEALTPPPATHLSPLDSAHTLLAPPDSSEKICTVQLVGNSWTPGYPETQEALCPQVTWSWDQLPSRALGPAAAPTLSPESPAGSPAMMLQPGPQLYDVMDAVPARRWKEFVRTLGLREAEIEAVEVEIGRFRDQQYEMLKRWRQQQPAGLGAVYAALERMGLDGCVEDLRSRLQRGP
modifications: full-length
notes: expressed by transfection
For B2, the “NF-κB activation upon transfection” value in the assay on NF-κB [2] was “activation observed”.
